Experiments:
[1] = target: T1, Prostate-specific antigen (PSA, KLK3) (Homo sapiens, UniProt P07288 P07288:25-261); test: ELONA; rank 1 of 1st generation; 1st generation up to 10-fold higher than parents; details: tags: purified from human semen; Sigma-Aldrich and Scipac; label: 5'-FITC
Procedure: (§1) 100 μL amounts of PSA in PBS buffer (pH 7.4), at final concentration of 5 μg/mL, were added to a 96-well polystyrene plate. After 2 h incubation with gentle shaking at 37° C., the supernatant was removed and each well was washed with TBST buffer. Each well was filled with 100 μl of five-fold-diluted blocking reagent N102 and incubated with gentle shaking for 1 h at room temperature, and then washed three times. FITC-labeled aptamer was heat treated in TBS buffer as described above for folding. To each well 100 μL amounts of the FITC-labeled aptamer in TBST buffer (5 μM) were added and incubated for 1 h at room temperature. […] Each well was washed five times and BM chemiluminescence HRP substrate was added, then the HRP activity was measured by a multi label plate counter: Wallac 1420 ARVO MX (Perkin Elmer).
(§2) In order to carry out a post-SELEX screening of aptamers using GA with candidates, the five sequences pre-selected through SELEX were used as “parents” to produce a set of 20 oligonucleotide sequences using GA. These oligonucleotides were synthesized and the PSA-binding ability was evaluated by plate assay. The PSA-binding ability was measured by detection chemiluminescence from HRP-conjugated anti-FITC antibody that represented the binding of oligonucleotides against PSA immobilized on a well of polystyrene plate (n=2). […]

[2] = target: T1, Prostate-specific antigen (PSA, KLK3); test: ELONA; rank 6 of 1st generation; details: tags: purified from human semen; Sigma-Aldrich and Scipac; label: 5'-FITC
Procedure: as §1, §2

[3] = target: T1, Prostate-specific antigen (PSA, KLK3); test: ELONA; details: tags: purified from human semen; Sigma-Aldrich and Scipac; label: 5'-FITC
Procedure: 100 μL amounts of PSA in PBS buffer (pH 7.4), at final concentration of 5 μg/mL, were added to a 96-well polystyrene plate. After 2 h incubation with gentle shaking at 37° C., the supernatant was removed and each well was washed with TBST buffer. Each well was filled with 100 μl of five-fold-diluted blocking reagent N102 and incubated with gentle shaking for 1 h at room temperature, and then washed three times. FITC-labeled aptamer was heat treated in TBS buffer as described above for folding. To each well 100 μL amounts of the FITC-labeled aptamer in TBST buffer (5 μM) were added and incubated for 1 h at room temperature. After washing three times, HRP-conjugated anti-FITC antibody was added to each well and incubated with gentle shaking for 1 h at room temperature. Each well was washed five times and BM chemiluminescence HRP substrate was added, then the HRP activity was measured by a multi label plate counter: Wallac 1420 ARVO MX (Perkin Elmer).
In order to carry out a post-SELEX screening of aptamers using GA with candidates, the five sequences pre-selected through SELEX were used as “parents” to produce a set of 20 oligonucleotide sequences using GA. These oligonucleotides were synthesized and the PSA-binding ability was evaluated by plate assay. The PSA-binding ability was measured by detection chemiluminescence from HRP-conjugated anti-FITC antibody that represented the binding of oligonucleotides against PSA immobilized on a well of polystyrene plate (n=2). The signal intensity was normalized with that of the top oligonucleotide in the 1st-generation. Then, the oligonucleotides were ranked according to PSA-binding ability, and top four ranked sequences were chosen to produce a next set of oligonucleotide sequences. The cycle of oligonucleotide synthesis, plate assay and evolution of the oligonucleotide sequences using GA was repeated three times, with one cycle corresponding to one generation when we assume this process to be the in silico evolution of the PSA-binding aptamer. After one cycle of GA operations, four 2nd-generation sequences, SEQ ID: Nos. 8 to 11, were obtained.

[4] = target: T1, Prostate-specific antigen (PSA, KLK3); test: ELONA; rank 3 of 1st generation; details: tags: purified from human semen; Sigma-Aldrich and Scipac; label: 5'-FITC
Procedure: as §1, §2

[5] = target: T1, Prostate-specific antigen (PSA, KLK3); test: ELONA; rank 2 of 1st generation; details: tags: purified from human semen; Sigma-Aldrich and Scipac; label: 5'-FITC
Procedure: as §1, §2

[6] = target: T1, Prostate-specific antigen (PSA, KLK3); test: ELONA; PSA immobilized on polystyrene plate; TBST with 5 mM KCl, 5 mM MgCl2, pH 7.4, room temp; details: tags: purified from human semen; Sigma-Aldrich and Scipac; label: 5'-FITC; predicted stem-loop
Procedure: as §1
Plate assay for detection of PSA was performed as described above with the following modifications. […] After incubation with HRP-conjugated anti-FITC antibody, chemiluminescence from HRP was measured.
Plate assay was performed to measure PSA concentrations with ΔPSap4#5 selected using GA as the top oligonucleotide of the 4th-generation. […] Then, the PSA concentration was measured by detecting chemiluminescence from HRP-conjugated anti-FITC antibody that represented the binding of FITC-labeled ΔPSap4#5 against PSA immobilized on a well of polystyrene plate (n=2). […]

[7] = target: T1, Prostate-specific antigen (PSA, KLK3); test: ELONA; rank 7 of 1st generation; details: tags: purified from human semen; Sigma-Aldrich and Scipac; label: 5'-FITC
Procedure: as §1, §2

[8] = target: T1, Prostate-specific antigen (PSA, KLK3); test: ELONA; rank 5 of 1st generation; details: tags: purified from human semen; Sigma-Aldrich and Scipac; label: 5'-FITC
Procedure: as §1, §2

[9] = target: T1, Prostate-specific antigen (PSA, KLK3); test: ELONA; rank 4 of 1st generation; details: tags: purified from human semen; Sigma-Aldrich and Scipac; label: 5'-FITC
Procedure: as §1, §2

T1 sequence (P07288 25-261, one chain of several): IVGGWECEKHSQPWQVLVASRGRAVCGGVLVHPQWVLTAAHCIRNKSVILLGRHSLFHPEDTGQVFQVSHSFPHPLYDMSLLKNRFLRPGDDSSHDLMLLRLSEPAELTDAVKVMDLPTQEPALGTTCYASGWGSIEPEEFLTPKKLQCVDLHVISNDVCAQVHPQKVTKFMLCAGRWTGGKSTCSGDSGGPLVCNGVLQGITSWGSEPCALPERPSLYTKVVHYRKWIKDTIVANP

TTTTTAATATCAACTTGCCATAAAGGGCCTTT (ssDNA) [ΔPSap1#13]
binding result [1]: binds

TTTTTGCCTAATGATTTCCCGGTTGTCTCTTT (ssDNA) [ΔPSap1#15]
binding result [2]: binds

TTTTTACTGTGAACTCGCCATCAAATATCTTT (ssDNA) [ΔPSap2#16]
binding signal [3]: 1480 CPS (normalized HRP chemiluminescence)

TTTTTAATGTCAACTCGCCATCAAATATCTTT (ssDNA) [ΔPSap1#16]
binding result [4]: binds

TTTTTACTTAAGGATTTCCTTTTTTAGCCTTT (ssDNA) [ΔPSap1#3]
binding result [5]: binds

TTTTTAATTAAAGCTCGCCATCAAATAGCTTT (ssDNA) [ΔPSap4#5]
Kd [6]: 54 nM

TTTTTAATTAAGGCTCGCCATCAAAAAGCTTT (ssDNA) [ΔPSap4#19]
binding signal [3]: 1220 CPS (normalized HRP chemiluminescence)

TTTTTAATTAAGGCTCGCCATCAAAGAGCTTT (ssDNA) [ΔPSap4#14]
binding signal [3]: 2510 CPS (normalized HRP chemiluminescence)

TTTTTTATTAAGGCTCGCCATCAAATAGCTTT (ssDNA) [ΔPSap4#10]
binding signal [3]: 3300 CPS (normalized HRP chemiluminescence)

TTTTTAATTAAGGCTCGCCATCAGATAGCTTT (ssDNA) [ΔPSap4#7]
binding signal [3]: 3260 CPS (normalized HRP chemiluminescence)

TTTTTAATTAAGGCTCGCCATCAAATAACTTT (ssDNA) [ΔPSap4#11]
binding signal [3]: 2150 CPS (normalized HRP chemiluminescence)

TTTTTAATTCAGGCTCGCCATCAAATAGCTTT (ssDNA) [ΔPSap4#1]
binding signal [3]: 1800 CPS (normalized HRP chemiluminescence)

TTTTTACTTAATGATTTCACCGGTGGCCCTTT (ssDNA) [ΔPSap1#19]
binding result [7]: binds

TTTTTAATATCACCCTTGTTTACTGTCCCTTT (ssDNA) [ΔPSap1#12]
binding result [8]: binds

TTTTTAATGTCAACGTTGTTTACTGTCCCTTT (ssDNA) [ΔPSap2#18]
binding signal [3]: 1490 CPS (normalized HRP chemiluminescence)

TTTTTGCCTACTGATTTCCTTTTTGAGCCTTT (ssDNA) [ΔPSap2#01]
binding signal [3]: 1170 CPS (normalized HRP chemiluminescence)

TTTTTCCTCACCGGGTAACTTCGTGGCCCTTT (ssDNA) [ΔPSap1#5]
binding result [9]: binds

TTTTTAATTAAGGATTTCCCGGTTGTATCTTT (ssDNA) [ΔPSap2#02]
binding signal [3]: 1550 CPS (normalized HRP chemiluminescence)
